This test addresses Recombinant SARS-CoV-2 spike RBD protein (SARS-CoV-2, UniProt P0DTC2). In words: SPR. (In SPR one partner is held on a chip, and binding of the other changes the refractive index at the surface.)

This is an account of results in article PMC8751651 (ACS Omega, 2021).

Where no end group is shown, it is not given here. The star is where a group is joined. Biotin = O=C1N[C@H]2[C@H](CS[C@H]2CCCCC(=O)*)N1; Cam = NC(=O)C*

For orientation: Kd means the constant that tells how readily two partners part at equilibrium. As for Biotin-SC(Cam)FDFLNWASCDGGGS [biotinylated peptide 6 (second synthesis)], the Kd is ~19 µM.
To Biotin-SCFDFLNWASCDGGGS (cysteine pairing not given here) [biotinylated peptide 1 (second synthesis)] belongs 5.8 µM.
